The values that follow come from patent US6015560, “Antibody recognizing endothelial cell ligand for leukocyte CR3” (The Rockfeller University, dated 2000).

Experiment [1] addresses T1, integrin complement receptor 3 (CR3) on human leukocytes (human, UniProt P11215). The experiment is described as follows: macrophages spread on peptide-coated wells; residual CD11b/CD18 detected with C3bi-coated erythrocytes.
For experiment [2], the target named is T1, integrin complement receptor 3 (CR3) on …. The experiment is described as follows: cell-based or functional assay.

Turning to GTLLLRNDALTENGTVTISA [FHA peptide Cd], the binding result in experiment [1] is reported as “no binding (tested: wells coated with 0.5 mM peptide)”.

For RGDPHQGVLAQGDIIMDAKGGTLLLRNDALTENGTVTISADSAVL [FHA peptide C], the “inhibition of adherence of human neutrophils to cultured endothelial cells” value (from here on “inhibition”) in experiment [2] came out at 62%.

Regarding LEHSTIESKISQSVLAAKGDKGKPAVSVKVAKKLFLNGTLRAVND [FHA peptide D], the “inhibition” value in experiment [2] was under 15%.

IGALKAGAVEAASPRRAARRALRQDFFTPGSVVVRAQGNYTVGRGD [FHA peptide A]: the “inhibition” value in experiment [2] was under 15%.

Turning to RADPHQGVLAQGDIIMDAKG [FHA peptide Cb], the binding result in experiment [1] was “no binding (tested: wells coated with 0.5 mM peptide)”.

For RQDFFTPGSVVVRAQGNVTVGRGDPHQGVLAQGDIIMDAKGGTLL [FHA peptide B], in experiment [2], the “inhibition” value turned out to be 29%.

B1: FHA peptide G (peptide)
peptide: IVVEAGELVSHAGGIGNGRNKENGASVTVRTTGNLVNKGYISAGKQGVLEVGGAL
Turning to B1, in experiment [2], the “inhibition” value is under 15%.

Regarding RPQITDAVTGEARKDESVVSDAALVADGGPIVVEAGELVSHAGGI [FHA peptide F], the “inhibition” value in experiment [2] is under 15%.

AKKLFLNGTLRAVNDNNETMSGRQIDVVDGRPQITDAVTGEARKD [FHA peptide E]: the “inhibition” value in experiment [2] was under 15%.

For AADPHQGVLAQGDIIMDAKG [FHA peptide Cc], in experiment [1], the binding result is given as “no binding (tested: wells coated with 0.5 mM peptide)”.
